Experiment [1] deals with CSPG (bovine) (D8428, Sigma) (bovine) (UniProt P21793). Nature of the experiment: quartz crystal microbalance (Attana A100), CSPG coated, 1:1 fit.
The target of experiment [2] is T1, CSPG (bovine) (D8428, Sigma) (bovine, UniProt P21793 31-360, carries chondroitin sulfate A (CSA) glycosaminoglycan chain(s); the filing attributes the binding of VAR2CSA to this glycan).
T1 construct: also called chondroitin sulfate proteoglycan; CSA proteoglycan
Described as above.

T1 sequence (P21793 31-360): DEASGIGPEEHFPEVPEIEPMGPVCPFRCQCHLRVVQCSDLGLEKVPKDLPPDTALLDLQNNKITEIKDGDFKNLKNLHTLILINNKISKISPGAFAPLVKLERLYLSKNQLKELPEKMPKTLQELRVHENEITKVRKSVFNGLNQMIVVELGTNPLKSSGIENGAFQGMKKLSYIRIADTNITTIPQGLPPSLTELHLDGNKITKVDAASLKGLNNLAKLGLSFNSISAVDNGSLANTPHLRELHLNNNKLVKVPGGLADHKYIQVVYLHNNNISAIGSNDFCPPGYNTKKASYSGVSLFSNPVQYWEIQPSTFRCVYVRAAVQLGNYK
Chain of CSPG (bovine) (D8428, Sigma) (bovine) (P21793 31-360): as above

In general, Kd refers to the constant that tells how readily two partners part at equilibrium. As to DBL2X-DBL4ε (FCR3, Baculo), in experiment [1], the Kd is 2.4 nM.
Turning to ID1-DBL4ε (FCR3, Baculo), the Kd in experiment [1] stood at 8.6 nM.
As for ID1-DBL3ε (FCR3, Baculo), the Kd in experiment [1] stood at 0.3 nM.

B1: DBL2X-DBL4ε (3D7, Baculo) (other)
chain: LTNCYKCDKCKSEQSKKNNKNWIWKKSSGKEGGLQKEYANTIGLPPRTQSLCLVVCLDEKGKKTQELKNIRTNSELLKEWIIAAFHEGKNLKPSHEKKNDDNGKKLCKALEYSFADYGDLIKGTSIWDNEYTKDLELNLQKIFGKLFRKYIKKNNTAEQDTSYSSLDELRESWWNTNKKYIWLAMKHGAGMNSTTCCGDGSVTGSGSSCDDIPTIDLIPQYLRFLQEWVEHFCKQRQEKVKPVIENCKSCKESGGTCNGECKTECKNKCEVYKKFIEDCKGGDGTAGSSWVKRWDQIYKRYSKYIEDAKRNRKAGTKNCGPSSTTNAAENKCVQSDIDSFFKHLIDIGLTTPSSYLSIVLDDNICGADKAPWTTYTTYTTTEKCNKETDKSKLQQCNTAVVVNVPSPLGNTPHGYKYACQCKIPTNEETCDDRKEYMNQWSCGSARTMKRGYKNDNYELCKYNGVDVKPTTVRSNSSKLDDKDVTFFNLFEQWNKEIQYQIEQYMTNTKISCNNEKNVLSRVSDEAAQPKFSDNERDRNSITHEDKNCKEKCKCYSLWIEKINDQWDKQKDNYNKFQRKQIYDANKGSQNKKVVSLSNFLFFSCWEEYIQKYFNGDWSKIKNIGSDTFEFLIKKCGNDSGDGETIFSEKLNNAEKKCKENESTNNKMKSSETSCDCSEPIYIRGCQPKIYDGKIFPGKGGEKQWICKDTIIHGDTNGACIPPRTQNLCVGELWDKRYGGRSNIKNDTKESLKQKIKNAIQKETELLYEYHDKGTAIISRNPMKGQKEKEEKNNDSNGLPKGFCHAVQRSFIDYKNMILGTSVNIYEYIGKLQEDIKKIIEKGTTKQNGKTVGSGAENVNAWWKGIEGEMWDAVRCAITKINKKQKKNGTFSIDECGIFPPTGNDEDQSVSWFKEWSEQFCIERLQYEKNIRDACTNNGQGDKIQGDCKRKCEEYKKYISEKKQEWDKQKTKYENKYVGKSASDLLKENYPECISANFDFIFNDNIEYKTYYPYGDYSSICSCEQVKYYEYNNAEKKNNKSLCHEKGNDRTWSKKYIKKLENGRTLEGVYVPPRRQQLCLYELFPIIIKNKNDITNAKKELLETLQIVAEREAYYLWKQYHAHNDTTYLAHKKACCAIRGSFYDLEDIIKGNDLVHDEYTKYIDSKLNEIFDSSNKNDIETKRARTDWWENEAIAVPNITGANKSDPKTIRQLVWDAMQSGVRKAIDEEKEKKKPNENFPPCMGVQHIGIAKPQFIRWLEEWTNEFCEKYTKYFEDMKSNCNLRKGADDCDDNSNIECKKACANYTNWLNPKRIEWNGMSNYYNKIYRKSNKESEDGKDYSMIMEPTVIDYLNKRCNGEINGNYICCSCKNIGENSTSGTVNKKLQKKETQCEDNKGPLDLMNKVLNKMDPKYSEHKMKCTEVYLEHVEEQLKEIDNAIKDYKLYPLD
notes: not shown: V5 and His tag at the C-terminal (modified pAcGP67-A)
In experiment [2], B1 came in with a Kd of 1.2 nM.

B2: ID1-DBL4ε (3D7, Baculo) (other)
chain: LSFILNSSDANNPSEKIQKNNDEVCNCNESGIASVEQEQISDPSSNKTCITHSSIKANKKKVCKHVKLGVRENDKDLRVCVIEHTSLSGVENCCCQDFLRILQENCSDNKSGSSSNGSCNNKNQEACEKNLEKVLASLTNCYKCDKCKSEQSKKNNKNWIWKKSSGKEGGLQKEYANTIGLPPRTQSLCLVVCLDEKGKKTQELKNIRTNSELLKEWIIAAFHEGKNLKPSHEKKNDDNGKKLCKALEYSFADYGDLIKGTSIWDNEYTKDLELNLQKIFGKLFRKYIKKNNTAEQDTSYSSLDELRESWWNTNKKYIWLAMKHGAGMNSTTCCGDGSVTGSGSSCDDIPTIDLIPQYLRFLQEWVEHFCKQRQEKVKPVIENCKSCKESGGTCNGECKTECKNKCEVYKKFIEDCKGGDGTAGSSWVKRWDQIYKRYSKYIEDAKRNRKAGTKNCGPSSTTNAAENKCVQSDIDSFFKHLIDIGLTTPSSYLSIVLDDNICGADKAPWTTYTTYTTTEKCNKETDKSKLQQCNTAVVVNVPSPLGNTPHGYKYACQCKIPTNEETCDDRKEYMNQWSCGSARTMKRGYKNDNYELCKYNGVDVKPTTVRSNSSKLDDKDVTFFNLFEQWNKEIQYQIEQYMTNTKISCNNEKNVLSRVSDEAAQPKFSDNERDRNSITHEDKNCKEKCKCYSLWIEKINDQWDKQKDNYNKFQRKQIYDANKGSQNKKVVSLSNFLFFSCWEEYIQKYFNGDWSKIKNIGSDTFEFLIKKCGNDSGDGETIFSEKLNNAEKKCKENESTNNKMKSSETSCDCSEPIYIRGCQPKIYDGKIFPGKGGEKQWICKDTIIHGDTNGACIPPRTQNLCVGELWDKRYGGRSNIKNDTKESLKQKIKNAIQKETELLYEYHDKGTAIISRNPMKGQKEKEEKNNDSNGLPKGFCHAVQRSFIDYKNMILGTSVNIYEYIGKLQEDIKKIIEKGTTKQNGKTVGSGAENVNAWWKGIEGEMWDAVRCAITKINKKQKKNGTFSIDECGIFPPTGNDEDQSVSWFKEWSEQFCIERLQYEKNIRDACTNNGQGDKIQGDCKRKCEEYKKYISEKKQEWDKQKTKYENKYVGKSASDLLKENYPECISANFDFIFNDNIEYKTYYPYGDYSSICSCEQVKYYEYNNAEKKNNKSLCHEKGNDRTWSKKYIKKLENGRTLEGVYVPPRRQQLCLYELFPIIIKNKNDITNAKKELLETLQIVAEREAYYLWKQYHAHNDTTYLAHKKACCAIRGSFYDLEDIIKGNDLVHDEYTKYIDSKLNEIFDSSNKNDIETKRARTDWWENEAIAVPNITGANKSDPKTIRQLVWDAMQSGVRKAIDEEKEKKKPNENFPPCMGVQHIGIAKPQFIRWLEEWTNEFCEKYTKYFEDMKSNCNLRKGADDCDDNSNIECKKACANYTNWLNPKRIEWNGMSNYYNKIYRKSNKESEDGKDYSMIMEPTVIDYLNKRCNGEINGNYICCSCKNIGENSTSGTVNKKLQKKETQCEDNKGPLDLMNKVLNKMDPKYSEHKMKCTEVYLEHVEEQLKEIDNAIKDYKLYPLD
notes: as for B1
Regarding B2, in experiment [2], the Kd stood at 9.4 nM.

B3: ID1-DBL2Xb (3D7, Baculo) (other)
chain: LSFILNSSDANNPSEKIQKNNDEVCNCNESGIASVEQEQISDPSSNKTCITHSSIKANKKKVCKHVKLGVRENDKDLRVCVIEHTSLSGVENCCCQDFLRILQENCSDNKSGSSSNGSCNNKNQEACEKNLEKVLASLTNCYKCDKCKSEQSKKNNKNWIWKKSSGKEGGLQKEYANTIGLPPRTQSLCLVVCLDEKGKKTQELKNIRTNSELLKEWIIAAFHEGKNLKPSHEKKNDDNGKKLCKALEYSFADYGDLIKGTSIWDNEYTKDLELNLQKIFGKLFRKYIKKNNTAEQDTSYSSLDELRESWWNTNKKYIWLAMKHGAGMNSTTCCGDGSVTGSGSSCDDIPTIDLIPQYLRFLQEWVEHFCKQRQEKVKPVIENCKSCKESGGTCNGECKTECKNKCEVYKKFIEDCKGGDGTAGSSWVKRWDQIYKRYSKYIEDAKRNRKAGTKNCGPSSTTNAAENKCVQSDIDSFFKHLIDIGLTTPSSYLSIVLDDNICGADKAPWTTYTTYTTTEKCNKETDKSKLQQCNTAVVVNVPSPLGNTPHGYKY
notes: The start at 16 is derived by me from the forward primer (LSFILN); not shown: V5 and His tag at the C-terminal (modified pAcGP67-A)
In the case of B3, in experiment [2], binding was put at a Kd of 21.8 nM.

B4: ID1-DBL3ε (3D7, Baculo) (other)
chain: LSFILNSSDANNPSEKIQKNNDEVCNCNESGIASVEQEQISDPSSNKTCITHSSIKANKKKVCKHVKLGVRENDKDLRVCVIEHTSLSGVENCCCQDFLRILQENCSDNKSGSSSNGSCNNKNQEACEKNLEKVLASLTNCYKCDKCKSEQSKKNNKNWIWKKSSGKEGGLQKEYANTIGLPPRTQSLCLVVCLDEKGKKTQELKNIRTNSELLKEWIIAAFHEGKNLKPSHEKKNDDNGKKLCKALEYSFADYGDLIKGTSIWDNEYTKDLELNLQKIFGKLFRKYIKKNNTAEQDTSYSSLDELRESWWNTNKKYIWLAMKHGAGMNSTTCCGDGSVTGSGSSCDDIPTIDLIPQYLRFLQEWVEHFCKQRQEKVKPVIENCKSCKESGGTCNGECKTECKNKCEVYKKFIEDCKGGDGTAGSSWVKRWDQIYKRYSKYIEDAKRNRKAGTKNCGPSSTTNAAENKCVQSDIDSFFKHLIDIGLTTPSSYLSIVLDDNICGADKAPWTTYTTYTTTEKCNKETDKSKLQQCNTAVVVNVPSPLGNTPHGYKYACQCKIPTNEETCDDRKEYMNQWSCGSARTMKRGYKNDNYELCKYNGVDVKPTTVRSNSSKLDDKDVTFFNLFEQWNKEIQYQIEQYMTNTKISCNNEKNVLSRVSDEAAQPKFSDNERDRNSITHEDKNCKEKCKCYSLWIEKINDQWDKQKDNYNKFQRKQIYDANKGSQNKKVVSLSNFLFFSCWEEYIQKYFNGDWSKIKNIGSDTFEFLIKKCGNDSGDGETIFSEKLNNAEKKCKENESTNNKMKSSETSCDCSEPIYIRGCQPKIYDGKIFPGKGGEKQWICKDTIIHGDTNGACIPPRTQNLCVGELWDKRYGGRSNIKNDTKESLKQKIKNAIQKETELLYEYHDKGTAIISRNPMKGQKEKEEKNNDSNGLPKGFCHAVQRSFIDYKNMILGTSVNIYEYIGKLQEDIKKIIEKGTTKQNGKTVGSGAENVNAWWKGIEGEMWDAVRCAITKINKKQKKNGTFSIDECGIFPPTGNDEDQSVSWFKEWSEQFCIERLQYEKNIRDACTNNGQGDKIQGDCKRKCEEYKKYISEKKQEWDKQKTKYENKYVGKSASDLLKENYPECISANFDFIFNDNIEYKTYYPYGDYSSICSCEQVKYYEYNNAE
notes: as for B1
Molecule B4 displayed a Kd in experiment [2] of 8.5 nM.

B5: DBL1-ID2b (FCR3, Baculo) (other)
chain: HSDSGKYDPCEKKLPPYDDNDQWKCQQNSSDGSGKPENICVPPRRERLCTYNLENLKFDKIRDNNAFLADVLLTARNEGEKIVQNHPDTNSSNVCNALERSFADLADIIRGTDQWKGTNSNLEKNLKQMFAKIRENDKVLQDKYPKDQKYTKLREAWWNANRQKVWEVITCGARSNDLLIKRGWRTSGKSDRKKNFELCRKCGHYEKEVPTKLDYVPQFLRWLTEWIEDFYREKQNLIDDMERHREECTREDHKSKEGTSYCSTCKDKCKKYCECVKKWKTEWENQENKYKDLYEQNKNKTSQKNTSRYDDYVKDFFEKLEANYSSLENYIKGDPYFAEYATKLSFILNPSDANNPSGETANHNDEACNCNESGISSVGQAQTSGPSSNKTCITHSSIKTNKKKECKDVKLGVRENDKDLKICVIEDTSLSGVDNCCCQDLLGILQENCSDNKRGSSSNDSCDNKNQDECQKKLEKVFASLTNGYKCDKCKSGTSRSKKKWIWKKSSGNEEGLQEEYANTIGLPPRTQSLYLGNLPKLENVCEDVKDINFDTKEKFLAGCLIVSFHEGKNLKKRYPQNKNSGNKENLCKALEYSFADYGDLIKGTSIWDNEYTKDLELNLQNNFGKLFGKYIKKNNTAEQDTSYSSLDELRESWWNTNKKYIWTAMKHGAEMNITTCNADGSVTGSGSSCDDIPTIDLIPQYLRFLQEWVENFCEQRQAKVKDVITNCKSCKESGNKCKTECKTKCKDECEKYKKFIEACGTAGGGIGTAGSPWSKRWDQIYKRYSKHIEDAKRNRKAGTKNCGTSSTTNAAASTDENKCVQSDIDSFFKHLIDIGLTTPSSYLSNVLDDNICGADKAPWTTYTTYTTTEKCNKERDKSKSQSSDTLVVVNVPSPLGNTPYRYKYACQCKIPTNEETCDDRKEYMNQWSCGSARTMKRGYKNDNYELCKYNGVDVKPTTVRSNSSKLDGNDVTFFNLFEQWNKEIQYQIEQYMTNANISCIDEKEVLDSVSDEGTPKVRGGYEDGRNNNTDQGTNCKEKCKCYKLWIEKINDQWGKQKDNYNKFRSKQIYDANKGSQNKKVVSLSNFLFFSCWEEYIQKYFNGDWSKIKNIGSDTFEFLIKKCGNNSAHGEEIFNEKLKNAEKKCKENESTDTNINK
notes: Range derived by me from the FCR3 DBL1X forward primer (HSDSGK) and the FCR3 ID2b reverse primer (TDTNINK); also called DBL1X-ID2b; not shown: V5 and His tag at the C-terminal (modified pAcGP67-A)
In turn, B5 showed a Kd in experiment [2] of 1.5 nM.
